{"source": "patent US20050147610A1", "about": "(AbbVie / Abbott, published 2005)", "binders": {"B1": {"name": "413 (antibody, V domains shown)", "VH": "ZTQLQESGPGLVKPSETLSLTCTVSGGSISSRVYYWGWIRQPPGKGLEWIGSIYYSGSTYYSPSLKSRVTISVDTSKNQFSLKLSSVTAADTAIYYCAREDSSAWVFEHWGQGTLVTVSS", "VL": "EIVLTQSPDTLSLSPGERATLSCRASQILSRNYLAWYQQKPGQAPRLLIYGISIRATGIPDRFSGSGSGADFTLTINRLEPEDFAVYYCQHYDNSLCSFGQGTKLEVKR"}, "B2": {"name": "435 (antibody, V domains shown)", "VH": "ZLQLQESGPGLVKPSETLSLTCTVSGGSIDSRIYYWGWIRQPPGKGLEWIGSIYYRGSTYYNPSLKSRVTISVDTPKNQFSLKLNSVTAADTAVYYCAREDSSAWVFDYWGQGTLATVSS", "VL": "EIVLTQSPGTLSLSPGERATLSCRASQSVRNNYLNWYQQKPGQAPRLLIYGAFSRATGIPDRFSGSGSGTDFTLTISSLEPEDFVVYYCQQYGNSIDSFGQGTKLEINR"}, "B3": {"name": "2.13.1 (antibody, V domains shown)", "VH": "ZVQLQESGPGLVTPSQTLSLTCTVSGGSISSGGHYWTWIRQHPGKGLEWIGYIYYSGSTYYNPSLKSRLTISVDTSKNQFSLKLSSVAAADTAVYYCARDRGGSGSYWDYWGQGTLVTVSS", "VL": "EIVLTQSPGTLSLSPGERATLSCRGSRSVSSGYLAWYQQKPGQAPRLLIYGVSIRATGIPDRFSGSGSGTDFTLTISRLEPEDFAVYYCQQYHGSPLTFGGGTKVEIKR"}, "B4": {"name": "215 (antibody, V domains shown)", "VH": "ZVQLQESGPGLVKPSQTLSLTCTVSGGSINSGDYYWSWIRQHPGKGLEWIGHISYRGTTYYNPSLKSRVTISVDTSKNQFSLKLSSVTAADTAVYCCARDRGGGFFDLWGRGTLVTVSS", "VL": "B3 VL with G25A, V29L, V52A, G69A, H93N, G94Y, K104R, K108N"}, "B5": {"name": "2.13.1(E)wtg1 (antibody, V domains shown)", "VH": "B3 VH with Z1E", "VL": "B3 VL"}, "B6": {"name": "2.5.1 (antibody, V domains shown)", "VH": "ZVQLVQSGTEVKKPGESLKISCKGSGYTVTSYWIGWVRQMPGKGLEWMGFIYPGDSETRYSPTFQGQVTISADKSFNTAFLQWSSLKASDTAMYYCARVGSGWYPYTFDIWGQGTMVTVSS", "VL": "not shown"}, "B7": {"name": "IL-18BP-Fc (Fc fusion, UniProt O95998 31-194, looked up, not shown: a dimerising Fc or GST)", "chain": "TPVSQTTTAATASVRSTKDPCPSQPPVFPAAKQCPALEVTWPEVEVPLNGTLSLSCVACSRFPNFSILYWLGNGSFIEHLPGRLWEGSTSRERGSTGTQLCKALVLEQLTPALHSTNFSCVLVDPEQVVQRHVVLAQLWAGLRATLPPTQEALPSSHSSPQQQG"}, "B8": {"name": "351 (antibody, V domains shown)", "VH": "ZVQLVESGGGVVQPGRSLRLSCAASGFTFSHYGMHWVRQAPGKGLEWVAVISYDGRNKYYVDSVKGRFTISRDNSKNTLYLQMNSLRAEDTAVFYCAREKGGSGWPPFYYYYGMDVWGQGTTVTVSS", "VL": "DIVMTQTPLSLSVTPGQPASISCKSSQNLLYSDGETYLCWYLQKPGQPPQLLIYEVSNRFSGVPERFSGSGSGTDFTLKISRVEAEDVGIYYCMQNVQLPLTFGGGTRVEIKR"}}, "key": {"[1]": {"target": "T1, NEM-huIL-18 (recombinant mature human IL-18 treated with N-ethyl maleiamide) (human, UniProt Q14116 37-193, cysteines protected with N-ethyl maleiamide (NEM))", "experiment": "cell-based or functional assay"}, "[2]": {"target": "T1, NEM-huIL-18 (recombinant mature human …)", "experiment": "cell-based or functional assay", "remark": "listed apart in the source"}, "[3]": {"target": "T2, natural human IL-18 (endogenous, human whole blood) (human, UniProt Q14116 37-193)", "experiment": "cell-based or functional assay"}, "[4]": {"target": "T1, NEM-huIL-18 (recombinant mature human …)", "experiment": "Biacore, NEM-cys protected rhuIL-18"}, "125I labeled rhu-IL-18 [5]": {"target": "T3, 125I labeled rhu-IL-18 (human, UniProt Q14116 37-193, NEM-treated cysteines; 125I label on lysine residues)", "experiment": "RBA: inhibition of 125I-rhu-IL-18 binding to IL-18Rαβ on KG-1 cells"}, "[6]": {"target": "recombinant mature human IL-18 (preparation not specified) (human, UniProt Q14116 37-193)", "experiment": "cell-based or functional assay"}, "[7]": {"target": "T2, natural human IL-18 (endogenous, human …)", "experiment": "cell-based or functional assay", "remark": "listed apart in the source"}, "125I labeled rhu-IL-18 [8]": {"target": "T3, 125I labeled rhu-IL-18", "experiment": "RBA: inhibition of 125I-rhu-IL-18 binding to IL-18Rαβ on KG-1 cells", "remark": "listed apart in the source"}}, "note": "Numbering of substitutions follows the chain as printed. Where “and” joins values, the source holds several entries; their conditions need not be identical. Equal values may be shown once. Read-outs that look alike come from different tables or passages of the source."}
{"binder": "B1", "values": [{"measurement": "KG-1 Assays (IC50, M), NEM-rhuIL-18", "setting": "[1]", "result": "1e-09 M and 7e-10 M"}]}
{"binder": "B2", "values": [{"measurement": "KG-1 Assays (IC50, M), NEM-rhuIL-18", "setting": "[1]", "result": "8e-10 M and 7e-10 M and 4e-10 M"}]}
{"binder": "B3", "values": [{"measurement": "KG-1 Assays (IC50, M), NEM-rhuIL-18", "setting": "[1]", "result": "2e-10 M and 1e-10 M and 7e-11 M"}]}
{"binder": "B4", "values": [{"measurement": "KG-1 Assays (IC50, M), NEM-rhuIL-18", "setting": "[1]", "result": "1e-10 M and 3e-10 M"}]}
{"binder": "B5", "values": [{"measurement": "KG-1 (IC50, nM)", "setting": "[2]", "result": 0.12, "unit": "nM"}, {"measurement": "WBA (IC50, nM)", "setting": "[3]", "result": 2, "unit": "nM"}, {"measurement": "Kd", "setting": "[4]", "result": 200, "unit": "pM"}, {"measurement": "IC50", "setting": "125I labeled rhu-IL-18 [5]", "result": 200, "unit": "pM"}]}
{"binder": "B6", "values": [{"measurement": "KG-1 Assays (IC50, M), NEM-rhuIL-18", "setting": "[1]", "result": "3e-10 M and 4e-10 M"}]}
{"binder": "B7", "values": [{"measurement": "KG-1, Neutralization Potency in vitro (IC50, nM)", "setting": "[6]", "result": 0.03, "unit": "nM"}, {"measurement": "WBA, Neutralization Potency in vitro (IC50, nM)", "setting": "[7]", "result": 5.7, "unit": "nM"}, {"measurement": "IC50", "setting": "125I labeled rhu-IL-18 [8]", "result": 1000, "unit": "pM"}]}
{"binder": "B8", "values": [{"measurement": "KG-1 Assays (IC50, M), NEM-rhuIL-18", "setting": "[1]", "result": "2e-10", "unit": "M"}]}
